The source of these data is patent US20090191235A1.

In one assay the target is 17b antibody. As to the kind of experiment: SPR (Biacore); 17b on-rate with CD4 over without CD4. A general note: SPR reads the build-up and loss of mass on a sensor chip optically.
In assay [1] the target is 2-domain CD4 (UniProt P01730). Description: SPR (Biacore), 2-domain CD4 immobilised, gp120 analyte.
Assay [2] has as its target CD4 as used in isothermal titration calorimetry (UniProt P01730). Description: ITC, drawn table of thermodynamic values of CD4-gp120 binding. (ITC needs no label: the signal is the heat of the interaction.)
Assay [3] shares this target. As to the kind of experiment: ITC, drawn table of thermodynamic values, column 'Kd (nM) to sCD4'.
The target of assay [4] is 2-domain CD4 (UniProt P01730). Description: ITC, titration of HXBc2 core with sCD4(D1D2) at 37°C, value in the box beside the curve.
Assay [5] addresses 2-domain CD4 (UniProt P01730). As to the kind of experiment: ITC, titration of HXBc2 core with sCD4(D1D2) at 37°C, stoichiometry marked at molar ratio 1.0 (CD4/core gp120).

The term Kd denotes the equilibrium constant for the complex coming apart. A lower Kd goes with tighter binding. “gp120 HXBc2 core, wild type (from UniProt P04578 83-492)” displayed a CD4 Induction with 17b antibody of 79.9. Further, the figures for the Kd (with 2-domain CD4 [1]; in assay [3]; with 2-domain CD4 [4]) were 0.0295 µM, 0.087 µM and 0.117 µM, respectively. For the same substance, the -TΔS (in assay [2]; in the assay with 2-domain CD4 [4]) was 40 kcal/mol throughout. The ΔH is -49.7 kcal/mol in assay [2] and -49 kcal/mol with 2-domain CD4 [4]. In the assay with 2-domain CD4 [5], the n is 1.
